We go through one molecule from US9745384B2, “Peptides useful for modulating histone demethylase function” (The Brigham and Women's Hospital, Inc., priority 2012, dated 2017).

For assay [1], the system named is double strand DNA. Description: DNA binding assay (GST-pulldown). The method, then: 5-10 μg GST and GST-tagged NPAC truncation proteins were incubated with 1 μg linearized plasmid DNA overnight at 4° C. in 50 mM Tris pH 7.4, 200 mM NaCl, 0.2% NP-40, 1 mM MgCl2, 1 mM EDTA, 1 mM DTT, 0.02 mM ZnSO4. After extensive washing with the same buffer, bound DNA was eluted by incubating with 100 μl 10 mM Tris pH 8.0, 1% SDS for 15 minutes at 65° C. Pulldown DNA was purified using Qiagen PCR purification kit, resolved by agarose gel electrophoresis and stained with Ethidium Bromide.

The subject of assay [2] is H3Kc36me3 nucleosomes. Description: MLA nucleosome pulldown by GST-NPAC.d1. Conditions: H3Kc36me3, H3Kc79me3, H3Kc9me3, H3Kc27me3, unmodified. In kind it is binding. The method, then:
MLA nucleosomes were reconstituted using 147 bp double-strand alpha satellite DNA and recombinant histones expressed and purified from E. coli. Tri-methylation was chemically introduced to H3K9C, H3K27C, H3K36C and H3K79C histones respectively as described (Simon et al., 2007). 2 μg MLA nucleosome was used for GST-pulldown as described above.

Assay [3] relates to nucleosomes purified from HeLa. As to the kind of experiment: Nucleosome pulldown by GST-NPAC proteins. The format is binding. The method, then:
Nucleosomes were purified from HeLa as previously described (Umlauf et al., 2004). To examine nucleosome binding selectivity of NPAC, 5 μg GST fusion protein bound to glutathione agarose were incubated with 20 μg nucleosomes overnight at 4° C. in nucleosome binding buffer (50 mM NaPO4 pH 7.4, 200 mM NaCl, 0.5% NP-40, 5% glycerol, 10 μM ZnSO4, 1 mM MgCl2, 1 mM DTT, 0.1 mM PMSF). After washing 4 times with the same buffer at 4° C., the beads were boiled in 1×SDS sample loading buffer and elute was resolved by 15% SDS-PAGE for immunoblot analysis or coomassie staining.
For free-DNA competition assays, human genomic DNA was purified from HeLa cells and fragmented to an average size around 300 bp by sonication. Equal amounts of GST-NPAC.d5 bound to glutathione beads were pre-incubated with 0, 5, 10, 25 μg genomic DNA fragments in nucleosome binding buffer for 30 minutes at room temperature, and equal amounts of nucleosomes were added and incubated overnight at 4° C. After extensive washing, GST-NPAC.d5 and bound nucleosomes were eluted by boiling in 1×SDS sample loading buffer, resolved by SDS-PAGE and stained with coomassie blue.

B1: NPAC.d1: Example 2 GST-NPAC truncation, residues 1-150 (protein, UniProt Q49A26 1-150, looked up, fragment)
chain: MAAVSLRLGDLVWGKLGRYPPWPGKIVNPPKDLKKPRGKKCFFVKFFGTEDHAWIKVEQLKPYHAHKEEMIKINKGKRFQQAVDAVEEFLRRAKGKDQTSSHNSSDDKNRRNSSEERSRPNSGDEKRKLSLSEGKVKKNMGEGKKRVSSG
modifications: GST tag
Regarding B1, in assay [1], the “DNA binding (GST-pulldown)” value was “can bind to double strand DNA”. Besides, the “Binding to modification-specific MLA nucleosomes” value in assay [2] was “highest binding affinity for H3Kc36me3 nucleosomes over H3Kc79me3”. Further, the “Nucleosome binding (GST-pulldown)” value in assay [3] is recorded as “strong binding to nucleosomes”.
